These results are taken from PMC4894983.

Where only a bound is given, the exact number is not on record here.

One series relates to CsrA-Strep (Campylobacter jejuni NCTC11168). Nature of the series: EMSA. (A gel shift assay detects complexes by their altered migration in electrophoresis.)
As a reminder, the Kd is the equilibrium constant for the complex coming apart. The low end stands for tighter binding, the high end for weaker binding. flaG leader registered a Kd greater than 0.35 µM.
Same read-out and setting: next, flaB leader: greater than 0.35 µM.
Still for that read-out and setting: the same measure for flgI leader: greater than 0.35 µM; for flaA WT leader: 0.05 µM.

The target of another series is T1, CsrA-Strep (Campylobacter jejuni NCTC11168) (UniProt Q0P9F1).
T1 sequence: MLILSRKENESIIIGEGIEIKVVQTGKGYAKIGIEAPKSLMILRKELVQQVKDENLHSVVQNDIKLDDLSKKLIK
Nature of the series: EMSA.
Regarding “GGAAAUUAAAAUUUUAAAAAGGAAGUUAAAAUGUCAAAACCAUUAAAUGAAGAGAUUUUUGUUGAAUUUAAAAGUGAUCUAGCUGAAAGAAAAAAUGAAGUUUUGCUUCAAGUUUUAGA [Cj0040 mRNA]”, the binding result is on record as “binds”.
The same measure, in the same setting: the same measure for “GGAUUAUAACUAAGAUCAAGGAGGCAGAAAUGAUCAAUCCUAUACAACAAAGUUAUGUGGCAAAUACCGCAUUAAAUACAAAUAGAAUAGAUAAAG [flgM mRNA]”: “binds”.
